The results in this text go back to paper doi:10.1101/2022.01.16.476467 (bioRxiv, 2022).

Test [1] addresses T1, CASK_CAMK domain (residues 1-345) (Mus musculus, UniProt O70589-3 1-345).
T1 sequence (looked up): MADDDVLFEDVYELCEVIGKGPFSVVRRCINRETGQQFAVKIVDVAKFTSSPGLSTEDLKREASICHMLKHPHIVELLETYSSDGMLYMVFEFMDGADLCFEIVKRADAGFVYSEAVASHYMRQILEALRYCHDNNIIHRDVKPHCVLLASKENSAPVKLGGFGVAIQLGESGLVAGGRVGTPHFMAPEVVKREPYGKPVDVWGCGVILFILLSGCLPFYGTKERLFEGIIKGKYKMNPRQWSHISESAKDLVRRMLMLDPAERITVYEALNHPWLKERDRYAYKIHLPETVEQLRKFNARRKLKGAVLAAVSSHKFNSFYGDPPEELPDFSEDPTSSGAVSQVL
The test is described as follows: SEC-MALS.

Test [2] deals with T1, CASK_CAMK domain (residues 1-345). The test is described as follows: ITC.
Test [3] addresses T2, CASK full-length protein (recombinant) (Mus musculus, UniProt O70589-3 1-897).
T2 sequence (looked up): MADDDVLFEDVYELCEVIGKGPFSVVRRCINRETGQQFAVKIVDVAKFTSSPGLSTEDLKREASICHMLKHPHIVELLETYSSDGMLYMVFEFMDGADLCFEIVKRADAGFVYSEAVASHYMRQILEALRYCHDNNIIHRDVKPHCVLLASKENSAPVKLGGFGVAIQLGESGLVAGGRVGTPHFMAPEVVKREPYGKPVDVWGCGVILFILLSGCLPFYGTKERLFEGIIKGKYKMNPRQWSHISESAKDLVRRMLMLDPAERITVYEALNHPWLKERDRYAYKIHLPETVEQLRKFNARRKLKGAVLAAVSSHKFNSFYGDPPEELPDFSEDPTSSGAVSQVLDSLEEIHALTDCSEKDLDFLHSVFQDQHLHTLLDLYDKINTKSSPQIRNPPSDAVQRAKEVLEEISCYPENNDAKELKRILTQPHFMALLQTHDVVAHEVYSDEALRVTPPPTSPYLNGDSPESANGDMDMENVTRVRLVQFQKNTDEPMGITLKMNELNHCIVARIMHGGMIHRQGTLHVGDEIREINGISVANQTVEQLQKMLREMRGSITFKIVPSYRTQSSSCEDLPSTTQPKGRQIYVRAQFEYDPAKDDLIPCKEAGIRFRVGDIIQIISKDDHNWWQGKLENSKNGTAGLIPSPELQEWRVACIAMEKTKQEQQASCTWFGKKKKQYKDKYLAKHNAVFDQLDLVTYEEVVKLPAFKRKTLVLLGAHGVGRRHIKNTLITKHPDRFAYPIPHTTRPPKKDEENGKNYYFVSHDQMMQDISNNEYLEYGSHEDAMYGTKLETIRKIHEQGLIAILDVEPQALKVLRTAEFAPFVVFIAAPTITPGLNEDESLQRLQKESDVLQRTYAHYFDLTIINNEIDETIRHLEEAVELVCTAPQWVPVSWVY
The test is described as follows: ITC.

B1: Caskin1 extended CID protein (residues 371-466) (domain or fragment, Mus musculus, UniProt Q6P9K8-1 371-466, looked up)
chain: PPEEIWVLRKPFAGGDRSGSLSNVAGGRSTGGHALHAGSEGVKLLATVLSQKSVSESSPGDSPVKPPEGSSGAARSQPPAAHAGQVYGEQPPKKLE
B1: in test [1], the “stoichiometry N” value is about 1. In addition, binding in test [2] was characterised by a dissociation constant (Kd) of 940 ± 90 nM.

B2: Caskin1_N-terminal (residues 1-674) (domain or fragment)
chain: not shown
As to B2, the dissociation constant (Kd) in test [3] was about 760 nM.
